The values that follow come from IntAct's records for PubMed 28065597.

The chains are these.
B1: Receptor tyrosine-protein kinase erbB-4 (Homo sapiens), Q15303 (parent)
chain: MKPATGLWVWVSLLVAAGTVQPSDSQSVCAGTENKLSSLSDLEQQYRALRKYYENCEVVMGNLEITSIEHNRDLSFLRSVREVTGYVLVALNQFRYLPLENLRIIRGTKLYEDRYALAIFLNYRKDGNFGLQELGLKNLTEILNGGVYVDQNKFLCYADTIHWQDIVRNPWPSNLTLVSTNGSSGCGRCHKSCTGRCWGPTENHCQTLTRTVCAEQCDGRCYGPYVSDCCHRECAGGCSGPKDTDCFACMNFNDSGACVTQCPQTFVYNPTTFQLEHNFNAKYTYGAFCVKKCPHNFVVDSSSCVRACPSSKMEVEENGIKMCKPCTDICPKACDGIGTGSLMSAQTVDSSNIDKFINCTKINGNLIFLVTGIHGDPYNAIEAIDPEKLNVFRTVREITGFLNIQSWPPNMTDFSVFSNLVTIGGRVLYSGLSLLILKQQGITSLQFQSLKEISAGNIYITDNSNLCYYHTINWTTLFSTINQRIVIRDNRKAENCTAEGMVCNHLCSSDGCWGPGPDQCLSCRRFSRGRICIESCNLYDGEFREFENGSICVECDPQCEKMEDGLLTCHGPGPDNCTKCSHFKDGPNCVEKCPDGLQGANSFIFKYADPDRECHPCHPNCTQGCNGPTSHDCIYYPWTGHSTLPQHARTPLIAAGVIGGLFILVIVGLTFAVYVRRKSIKKKRALRRFLETELVEPLTPSGTAPNQAQLRILKETELKRVKVLGSGAFGTVYKGIWVPEGETVKIPVAIKILNETTGPKANVEFMDEALIMASMDHPHLVRLLGVCLSPTIQLVTQLMPHGCLLEYVHEHKDNIGSQLLLNWCVQIAKGMMYLEERRLVHRDLAARNVLVKSPNHVKITDFGLARLLEGDEKEYNADGGKMPIKWMALECIHYRKFTHQSDVWSYGVTIWELMTFGGKPYDGIPTREIPDLLEKGERLPQPPICTIDVYMVMVKCWMIDADSRPKFKELAAEFSRMARDPQRYLVIQGDDRMKLPSPNDSKFFQNLLDEEDLEDMMDAEEYLVPQAFNIPPPIYTSRARIDSNRSEIGHSPPPAYTPMSGNQFVYRDGGFAAEQGVSVPYRAPTSTIPEAPVAQGATAEIFDDSCCNGTLRKPVAPHVQEDSSTQRYSADPTVFAPERSPRGELDEEGYMTPMRDKPKQEYLNPVEENPFVSRRKNGDLQALDNPEYHNASNGPPKAEDEYVNEPLYLNTFANTLGKAEYLKNNILSMPEKAKKAFDNPDYWNHSLPPRSTLQHPDYLQEYSTKYFYKQNGRIRPIVAENPEYLSEFSLKPGTVLPPPPYRHRNTVV
partner: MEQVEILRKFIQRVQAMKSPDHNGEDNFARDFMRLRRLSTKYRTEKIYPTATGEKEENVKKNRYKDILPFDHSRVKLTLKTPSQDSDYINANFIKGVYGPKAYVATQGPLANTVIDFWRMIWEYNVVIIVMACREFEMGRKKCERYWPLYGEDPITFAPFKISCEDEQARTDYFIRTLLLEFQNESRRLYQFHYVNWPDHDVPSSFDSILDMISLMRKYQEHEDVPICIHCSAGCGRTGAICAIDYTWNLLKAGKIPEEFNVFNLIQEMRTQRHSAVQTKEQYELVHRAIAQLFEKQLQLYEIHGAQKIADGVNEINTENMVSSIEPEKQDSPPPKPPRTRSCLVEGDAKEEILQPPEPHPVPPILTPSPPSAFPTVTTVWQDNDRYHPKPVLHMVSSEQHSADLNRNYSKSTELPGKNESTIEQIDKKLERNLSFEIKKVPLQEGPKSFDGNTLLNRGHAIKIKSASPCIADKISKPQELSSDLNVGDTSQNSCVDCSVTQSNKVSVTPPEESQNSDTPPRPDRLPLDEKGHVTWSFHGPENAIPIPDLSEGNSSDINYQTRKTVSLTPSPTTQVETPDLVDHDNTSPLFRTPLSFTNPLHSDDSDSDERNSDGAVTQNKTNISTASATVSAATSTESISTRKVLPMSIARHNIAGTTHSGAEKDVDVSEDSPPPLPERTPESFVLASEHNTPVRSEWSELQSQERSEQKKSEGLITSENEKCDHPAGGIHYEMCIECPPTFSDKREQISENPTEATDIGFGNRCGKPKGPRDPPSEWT
B2: Tyrosine-protein phosphatase non-receptor type 12 (Homo sapiens), Q05209 (parent)
chain: B1 partner
B3: Receptor tyrosine-protein kinase erbB-4 (Homo sapiens), Q15303 (parent)
chain: B1 chain
B4: Tyrosine-protein phosphatase non-receptor type 7 (Homo sapiens), P35236 (parent)
chain: MVQAHGGRSRAQPLTLSLGAAMTQPPPEKTPAKKHVRLQERRGSNVALMLDVRSLGAVEPICSVNTPREVTLHFLRTAGHPLTRWALQRQPPSPKQLEEEFLKIPSNFVSPEDLDIPGHASKDRYKTILPNPQSRVCLGRAQSQEDGDYINANYIRGYDGKEKVYIATQGPMPNTVSDFWEMVWQEEVSLIVMLTQLREGKEKCVHYWPTEEETYGPFQIRIQDMKECPEYTVRQLTIQYQEERRSVKHILFSAWPDHQTPESAGPLLRLVAEVEESPETAAHPGPIVVHCSAGIGRTGCFIATRIGCQQLKARGEVDILGIVCQLRLDRGGMIQTAEQYQFLHHTLALYAGQLPEEPSP
B5: Receptor tyrosine-protein kinase erbB-4 (Homo sapiens), Q15303 (parent)
chain: B1 chain
partner: B4 chain
B6: Macrophage-stimulating protein receptor (Mus musculus), Q62190 (parent)
chain: MGLPLPLLQSSLLLMLLLRLSAASTNLNWQCPRIPYAASRDFSVKYVVPSFSAGGRVQATAAYEDSTNSAVFVATRNHLHVLGPDLQFIENLTTGPIGNPGCQTCASCGPGPHGPPKDTDTLVLVMEPGLPALVSCGSTLQGRCFLHELEPRGKALHLAAPACLFSANNNKPEACTDCVASPLGTRVTVVEQGHASYFYVASSLDPELAASFSPRSVSIRRLKSDTSGFQPGFPSLSVLPKYLASYLIKYVYSFHSGDFVYFLTVQPISVTSPPSALHTRLVRLNAVEPEIGDYRELVLDCHFAPKRRRRGAPEGTQPYPVLQAAHSAPVDAKLAVELSISEGQEVLFGVFVTVKDGGSGMGPNSVVCAFPIYHLNILIEEGVEYCCHSSNSSSLLSRGLDFFQTPSFCPNPPGGEASGPSSRCHYFPLMVHASFTRVDLFNGLLGSVKVTALHVTRLGNVTVAHMGTVDGRVLQVEIARSLNYLLYVSNFSLGSSGQPVHRDVSRLGNDLLFASGDQVFKVPIQGPGCRHFLTCWRCLRAQRFMGCGWCGDRCDRQKECPGSWQQDHCPPEISEFYPHSGPLRGTTRLTLCGSNFYLRPDDVVPEGTHQITVGQSPCRLLPKDSSSPRPGSLKEFIQELECELEPLVTQAVGTTNISLVITNMPAGKHFRVEGISVQEGFSFVEPVLTSIKPDFGPRAGGTYLTLEGQSLSVGTSRAVLVNGTQCRLEQVNEEQILCVTPPGAGTARVPLHLQIGGAEVPGSWTFHYKEDPIVLDISPKCGYSGSHIMIHGQHLTSAWHFTLSFHDGQSTVESRCAGQFVEQQQRRCRLPEYVVRNPQGWATGNLSVWGDGAAGFTLPGFRFLPPPSPLRAGLVELKPEEHSVKVEYVGLGAVADCVTVNMTVGGEVCQHELRGDVVICPLPPSLQLGKDGVPLQVCVDGGCHILSQVVRSSPGRASQRILLIALLVLILLVAVLAVALIFNSRRRKKQLGAHSLSPTTLSDINDTASGAPNHEESSESRDGTSVPLLRTESIRLQDLDRMLLAEVKDVLIPHEQVVIHTDQVIGKGHFGVVYHGEYTDGAQNQTHCAIKSLSRITEVQEVEAFLREGLLMRGLHHPNILALIGIMLPPEGLPRVLLPYMRHGDLLHFIRSPQRNPTVKDLVSFGLQVACGMEYLAEQKFVHRDLAARNCMLDESFTVKVADFGLARGVLDKEYYSVRQHRHARLPVKWMALESLQTYRFTTKSDVWSFGVLLWELLTRGAPPYPHIDPFDLSHFLAQGRRLPQPEYCPDSLYHVMLRCWEADPAARPTFRALVLEVKQVVASLLGDHYVQLTAAYVNVGPRAVDDGSVPPEQVQPSPQHCRSTSKPRPLSEPPLPT
partner: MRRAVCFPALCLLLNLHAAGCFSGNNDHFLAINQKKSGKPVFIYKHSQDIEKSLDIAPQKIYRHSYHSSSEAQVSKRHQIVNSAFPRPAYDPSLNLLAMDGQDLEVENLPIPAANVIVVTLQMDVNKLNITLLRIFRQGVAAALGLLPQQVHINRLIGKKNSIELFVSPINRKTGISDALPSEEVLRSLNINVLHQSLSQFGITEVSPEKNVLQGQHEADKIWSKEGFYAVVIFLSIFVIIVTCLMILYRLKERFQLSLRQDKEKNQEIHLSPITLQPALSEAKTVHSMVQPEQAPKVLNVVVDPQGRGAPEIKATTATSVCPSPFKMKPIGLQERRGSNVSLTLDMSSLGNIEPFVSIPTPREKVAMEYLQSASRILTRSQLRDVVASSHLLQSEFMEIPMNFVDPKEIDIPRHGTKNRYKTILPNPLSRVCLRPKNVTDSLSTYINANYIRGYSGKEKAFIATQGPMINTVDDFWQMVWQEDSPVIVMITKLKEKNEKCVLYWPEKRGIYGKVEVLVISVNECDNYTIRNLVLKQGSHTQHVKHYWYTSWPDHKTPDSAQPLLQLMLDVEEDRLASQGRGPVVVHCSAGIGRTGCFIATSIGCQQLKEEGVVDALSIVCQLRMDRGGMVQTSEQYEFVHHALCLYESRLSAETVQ
B7: Receptor tyrosine-protein kinase erbB-4 (Homo sapiens), Q15303 (parent)
chain: B1 chain
partner: B6 partner
B8: Receptor-type tyrosine-protein phosphatase R (Homo sapiens), Q15256 (parent)
chain: B6 partner

The variants in one experiment derive from B1. As to conditions: with ptn12_human PTPN12, Q05209.
For the variant D843N, the “effect of a mutation on the interaction” value is on record as “with no effect”.

The variants in a further experiment derive from B1. As to conditions: with ptn12_human PTPN12, Q05209. The source holds these as a separate data set.
Consider D843N, for which the “effect of a mutation on the interaction” value is recorded as “increasing interaction”.

Variants of B2 are the subject of the next experiment. As to conditions: with igf1r_human IGF1R.
Target sequence in this assay (P08069 whole entry, looked up): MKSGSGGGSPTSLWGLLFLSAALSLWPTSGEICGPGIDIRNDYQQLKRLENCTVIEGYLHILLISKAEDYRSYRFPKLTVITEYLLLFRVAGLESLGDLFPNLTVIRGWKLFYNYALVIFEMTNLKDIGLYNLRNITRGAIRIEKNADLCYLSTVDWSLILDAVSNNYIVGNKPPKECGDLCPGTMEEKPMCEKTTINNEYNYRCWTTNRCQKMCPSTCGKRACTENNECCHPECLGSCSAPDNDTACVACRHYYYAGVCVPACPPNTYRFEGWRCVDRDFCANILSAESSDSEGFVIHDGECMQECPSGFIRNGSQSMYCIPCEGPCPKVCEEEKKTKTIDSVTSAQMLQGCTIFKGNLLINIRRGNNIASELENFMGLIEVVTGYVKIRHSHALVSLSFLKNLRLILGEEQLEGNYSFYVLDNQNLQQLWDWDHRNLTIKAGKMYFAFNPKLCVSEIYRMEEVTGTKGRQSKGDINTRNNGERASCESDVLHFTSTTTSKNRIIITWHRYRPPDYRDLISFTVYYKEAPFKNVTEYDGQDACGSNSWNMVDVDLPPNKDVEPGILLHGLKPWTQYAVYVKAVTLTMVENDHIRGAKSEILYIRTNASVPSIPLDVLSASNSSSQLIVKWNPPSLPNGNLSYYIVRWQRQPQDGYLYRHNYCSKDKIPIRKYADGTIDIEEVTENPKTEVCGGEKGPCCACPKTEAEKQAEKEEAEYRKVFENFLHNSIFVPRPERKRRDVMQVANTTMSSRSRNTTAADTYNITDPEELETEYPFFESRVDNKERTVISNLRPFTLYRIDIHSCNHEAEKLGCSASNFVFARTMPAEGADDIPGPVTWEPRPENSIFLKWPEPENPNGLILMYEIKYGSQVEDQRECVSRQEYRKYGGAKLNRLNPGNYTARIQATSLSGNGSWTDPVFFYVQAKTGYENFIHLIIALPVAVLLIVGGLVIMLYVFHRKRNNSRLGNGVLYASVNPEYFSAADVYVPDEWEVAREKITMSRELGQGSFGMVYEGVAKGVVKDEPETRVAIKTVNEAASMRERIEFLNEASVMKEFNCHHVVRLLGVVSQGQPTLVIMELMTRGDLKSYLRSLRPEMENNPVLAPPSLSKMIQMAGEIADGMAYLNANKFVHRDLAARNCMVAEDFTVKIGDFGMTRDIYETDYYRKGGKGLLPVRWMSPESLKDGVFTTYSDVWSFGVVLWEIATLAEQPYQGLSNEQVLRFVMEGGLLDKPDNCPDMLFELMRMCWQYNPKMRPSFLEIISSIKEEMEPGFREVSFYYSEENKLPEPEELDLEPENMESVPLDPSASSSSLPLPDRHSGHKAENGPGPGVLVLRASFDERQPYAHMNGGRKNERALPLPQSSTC
On to D201A;C235S, for which the “effect of a mutation on the interaction” value is “with no effect”.

Consider C235S, for which the “effect of a mutation on the interaction” value was “decreasing interaction”.

Another experiment covers variants of B2. As to conditions: with erbb4_human ERBB4, Q15303.
Consider C231S, for which the “effect of a mutation on the interaction” value is reported as “with no effect”.

On to D199A;C231S, for which the “effect of a mutation on the interaction” value was “disrupting interaction”.

Another experiment covers variants of B2. As to conditions: with erbb4_human ERBB4, Q15303. This is another data set of the same source.
Regarding C231S, the “effect of a mutation on the interaction” value is given as “disrupting interaction”.

Variants of B2 are the subject of a further experiment. As to conditions: with fgfr2_human FGFR2, P21802.
fgfr2_human FGFR2, P21802, sequence (P21802 whole entry, looked up): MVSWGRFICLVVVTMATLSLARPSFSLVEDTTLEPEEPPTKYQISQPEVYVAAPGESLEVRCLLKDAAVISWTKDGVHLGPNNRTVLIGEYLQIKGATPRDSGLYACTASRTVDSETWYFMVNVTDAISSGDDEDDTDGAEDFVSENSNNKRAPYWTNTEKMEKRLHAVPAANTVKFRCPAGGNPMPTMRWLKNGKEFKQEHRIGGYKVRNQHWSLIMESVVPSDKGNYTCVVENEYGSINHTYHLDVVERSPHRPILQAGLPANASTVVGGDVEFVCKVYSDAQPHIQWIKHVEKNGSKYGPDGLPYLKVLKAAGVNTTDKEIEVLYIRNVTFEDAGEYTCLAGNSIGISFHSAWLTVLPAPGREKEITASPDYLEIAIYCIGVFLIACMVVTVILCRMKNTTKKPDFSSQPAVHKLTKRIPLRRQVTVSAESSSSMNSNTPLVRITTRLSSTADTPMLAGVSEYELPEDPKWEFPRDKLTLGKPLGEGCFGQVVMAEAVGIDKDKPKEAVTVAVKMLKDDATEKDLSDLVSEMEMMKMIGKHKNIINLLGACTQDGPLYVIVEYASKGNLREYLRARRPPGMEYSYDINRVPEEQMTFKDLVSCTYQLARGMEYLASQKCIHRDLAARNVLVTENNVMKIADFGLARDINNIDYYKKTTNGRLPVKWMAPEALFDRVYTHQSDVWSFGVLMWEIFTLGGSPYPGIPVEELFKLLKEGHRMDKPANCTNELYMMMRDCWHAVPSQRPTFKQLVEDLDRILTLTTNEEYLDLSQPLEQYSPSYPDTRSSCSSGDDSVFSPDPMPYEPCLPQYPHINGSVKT
Regarding C231S, the “effect of a mutation on the interaction” value is on record as “disrupting interaction”.

For the variant D199A;C231S, the “effect of a mutation on the interaction” value is reported as “disrupting interaction”.

Variants of B2 are the subject of another experiment. As to conditions: with fgfr4_human FGFR4, P22455.
fgfr4_human FGFR4, P22455, sequence (P22455 whole entry, looked up): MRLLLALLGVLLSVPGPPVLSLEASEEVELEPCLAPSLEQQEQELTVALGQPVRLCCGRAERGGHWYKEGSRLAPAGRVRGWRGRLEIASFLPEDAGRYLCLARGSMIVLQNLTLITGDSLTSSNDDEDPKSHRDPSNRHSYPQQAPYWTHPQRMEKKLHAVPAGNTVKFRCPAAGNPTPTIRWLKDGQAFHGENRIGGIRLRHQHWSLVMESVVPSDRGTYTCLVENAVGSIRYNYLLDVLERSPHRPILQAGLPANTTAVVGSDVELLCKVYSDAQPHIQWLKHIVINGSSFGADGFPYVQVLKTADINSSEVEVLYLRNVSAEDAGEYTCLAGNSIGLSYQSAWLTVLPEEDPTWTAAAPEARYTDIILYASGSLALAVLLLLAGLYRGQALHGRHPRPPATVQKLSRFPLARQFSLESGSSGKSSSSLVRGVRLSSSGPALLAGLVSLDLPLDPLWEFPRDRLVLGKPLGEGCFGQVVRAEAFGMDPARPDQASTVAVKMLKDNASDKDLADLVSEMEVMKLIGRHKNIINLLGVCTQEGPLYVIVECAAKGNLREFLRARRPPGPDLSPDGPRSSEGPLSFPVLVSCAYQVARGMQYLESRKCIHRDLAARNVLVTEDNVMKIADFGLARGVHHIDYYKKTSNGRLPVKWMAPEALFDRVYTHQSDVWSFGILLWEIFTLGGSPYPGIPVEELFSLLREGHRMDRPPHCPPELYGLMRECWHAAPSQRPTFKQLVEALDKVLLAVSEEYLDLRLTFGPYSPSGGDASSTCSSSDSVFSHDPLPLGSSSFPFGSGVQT
C231S: the “effect of a mutation on the interaction” value was “increasing interaction”.

In the next experiment the parent is B2. As to conditions: with vgfr2_human KDR.
As to C231S, the “effect of a mutation on the interaction” value is reported as “with no effect”.

Turning to D199A;C231S, the “effect of a mutation on the interaction” value is on record as “with no effect”.

In another experiment the parent is B2. As to conditions: with igf1r_human IGF1R. The source holds these as a separate data set.
Target sequence in this assay (P08069 whole entry, looked up): as the sequence (P08069 whole entry, looked up) above
In the case of C231S, the “effect of a mutation on the interaction” value was “increasing interaction”.

With D199A;C231S, the “effect of a mutation on the interaction” value is “disrupting interaction”.

A further experiment covers variants of B3. As to conditions: with ptn6_human PTPN6, P29350.
ptn6_human PTPN6, P29350, sequence (P29350 whole entry): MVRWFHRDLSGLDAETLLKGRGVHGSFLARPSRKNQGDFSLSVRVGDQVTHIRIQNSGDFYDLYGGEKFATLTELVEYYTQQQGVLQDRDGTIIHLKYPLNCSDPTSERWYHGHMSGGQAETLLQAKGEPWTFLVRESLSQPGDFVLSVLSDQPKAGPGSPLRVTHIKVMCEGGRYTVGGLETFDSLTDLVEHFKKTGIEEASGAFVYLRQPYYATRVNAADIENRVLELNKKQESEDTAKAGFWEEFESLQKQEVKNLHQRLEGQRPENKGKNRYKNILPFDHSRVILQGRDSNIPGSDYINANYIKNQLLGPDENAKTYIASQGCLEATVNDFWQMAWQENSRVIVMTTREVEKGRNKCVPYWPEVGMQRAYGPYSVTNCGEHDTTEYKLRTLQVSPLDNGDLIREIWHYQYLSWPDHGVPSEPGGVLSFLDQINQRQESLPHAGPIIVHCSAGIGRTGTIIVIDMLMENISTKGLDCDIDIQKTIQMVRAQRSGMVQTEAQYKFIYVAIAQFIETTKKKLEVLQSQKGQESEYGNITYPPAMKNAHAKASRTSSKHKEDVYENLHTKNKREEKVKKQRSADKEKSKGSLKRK
Take D843N: the “effect of a mutation on the interaction” value was “with no effect”.

Variants of B4 are the subject of another experiment. As to conditions: with erbb4_human ERBB4, Q15303.
Consider D257A;C291S, for which the “effect of a mutation on the interaction” value is “with no effect”.

For C291S, the “effect of a mutation on the interaction” value was “with no effect”.

A further experiment covers variants of B4. As to conditions: with igf1r_human IGF1R.
Target sequence in this assay (P08069 whole entry, looked up): as the sequence (P08069 whole entry, looked up) above
In the case of D257A;C291S, the “effect of a mutation on the interaction” value is given as “with no effect”.

For the variant C291S, the “effect of a mutation on the interaction” value is listed as “with no effect”.

Another experiment covers variants of B4. As to conditions: with igf1r_human IGF1R. This is another data set of the same source.
Target sequence in this assay (P08069 whole entry, looked up): as above
In the case of D257A;C291S, the “effect of a mutation on the interaction” value is “increasing interaction”.

As to C291S, the “effect of a mutation on the interaction” value was “disrupting interaction”.

In a further experiment the parent is B5. As to conditions: with ptn7_human PTPN7, P35236.
For D843N, the “effect of a mutation on the interaction” value is recorded as “increasing interaction”.

In another experiment the parent is B6. As to conditions: with ptprr_human PTPRR, Q15256.
Regarding K1091A, the “effect of a mutation on the interaction” value was “decreasing interaction”.

Another experiment covers variants of B7. As to conditions: with ptprr_human PTPRR, Q15256.
Consider D843N, for which the “effect of a mutation on the interaction” value was “with no effect”.

Variants of B8 are the subject of the next experiment. As to conditions: with ret_human RET.
Y249F: the “effect of a mutation on the interaction” value is “increasing interaction”.

The variants in the next experiment derive from B8. As to conditions: with ron_mouse Mst1r, Q62190.
With Y249F, the “effect of a mutation on the interaction” value is listed as “increasing interaction”.
